# From IntAct's records for PubMed 14755250
# B1: RING finger protein 11 (Homo sapiens), Q9Y3C5 (parent)
# chain: MGNCLKSPTSDDISLLHESQSDRASFGEGTEPDQEPPPPYQEQVPVPVYHPTPSQTRLATQLTEEEQIRIAQRIGLIQHLPKGVYDPGRDGSEKKIRECVICMMDFVYGDPIRFLPCMHIYHLDCIDDWLMRSFTCPSCMEPVDAALLSSYETN
# partner: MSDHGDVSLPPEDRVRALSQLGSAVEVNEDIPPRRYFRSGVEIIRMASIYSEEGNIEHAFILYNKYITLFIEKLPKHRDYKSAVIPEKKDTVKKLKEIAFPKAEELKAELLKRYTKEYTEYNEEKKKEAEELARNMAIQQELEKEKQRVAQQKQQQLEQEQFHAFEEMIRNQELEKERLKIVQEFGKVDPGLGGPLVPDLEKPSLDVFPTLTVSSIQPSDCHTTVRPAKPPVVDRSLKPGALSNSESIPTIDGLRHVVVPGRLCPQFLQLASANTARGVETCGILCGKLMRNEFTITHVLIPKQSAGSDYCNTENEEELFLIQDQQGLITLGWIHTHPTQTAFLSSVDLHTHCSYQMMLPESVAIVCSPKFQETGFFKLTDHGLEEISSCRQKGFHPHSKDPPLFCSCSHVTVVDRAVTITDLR
# Variants of: B1
# Conditions: with stabp_human STAMBP
row,effect of a mutation on the interaction,Variant
1,decreasing interaction,C99A
